Measurements published in the supplement of paper PMC11865577.

How the values were obtained:
Experiment in all cases: pull-down binding Z-score (relative to library population); higher = stronger binding
Settings in all cases: RNA library: Library-2
[1] = tested on: TO-3-N3 (biotin conjugate)
How it was run: (§1)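 Heat-folded RNA library (1 μg, Cy5 or Cy3 end label, phosphate/NaCl/KCl buffer) was captured for 60 min at 25 °C on streptavidin beads displaying 100 pmol of biotin-conjugated small molecule, then washed three times. The bound fraction, eluted in hot SDS, was hybridised to a DNA barcode microarray at 55.5 °C for 20 h. Z-scores for binding were taken against the library mean and standard deviation after beads-only subtraction and trimmed averaging of replicate barcoded probes.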

[2] = tested on: TO-N3-2 (biotin conjugate)
How it was run: as §1

[3] = tested on: TO-3-N3-2 (biotin conjugate)
How it was run: as §1

TO-N3 (biotin conjugate) = tested on: TO-N3 (biotin conjugate)
How it was run: as §1

Sequence | pull-down binding Z-score [1] | pull-down binding Z-score [2] | pull-down binding Z-score [3] | pull-down binding Z-score (TO-N3 (biotin conjugate))
CAGGCAAGAAGGAUACUUACCUG [U1snRNP5ss-25] | -0.164 | -0.695 | -0.366 | -0.353
CAGGCAAUAACAGUUACACCGGAAGCCAAUAUGGAUCAAGAAUCCUUUGGUGGUGCAUCGUGUUGUCUG [SHAPE_invivo_SARS-CoV-2_Motif_250] | 0.944 | 0.779 | 0.619 | 1.2
CAGGCCACAAAUAGGCGUG | -0.638 | 0.278 | -0.502 | -0.509
CAGGCCAUCACAAAUGCCACAGCUUGAGUAAACUGUGCAGCCUG [3-way model-2_DENV2] | -0.433 | -0.0801 | -0.224 | -0.464
CAGGUACAGUAGAUACUUACCUG [U1snRNP5ss-19] | -0.605 | -1.09 | -0.722 | -0.984
CAGGUAUGAAUGAUACUUACCUG [U1snRNP5ss-11] | 1.06 | 0.225 | 0.369 | 0.898
CAGGUGACUUUGAUACUUACCUG [U1snRNP5ss-18] | -0.734 | -0.978 | -0.615 | -0.974
CAGGUUUGUGAGAUACUUACCUG [U1snRNP5ss-14] | -0.473 | -0.792 | -0.404 | -0.661
CAGUACAAUUCUGUGAUGCCAUGCGAAAUGCUGGUAUUGUUGGUGUACUG | -0.432 | -0.171 | -0.441 | -0.499
CAGUUGAAACAUCAAAUUCGUUUGAUGUACUG | -0.685 | -1.22 | -0.516 | -1.04
CAGUUUACUCACACCUUUUGCUCGUUGCUGCUG | -0.164 | 0.0199 | -0.285 | -0.0216
CAGUUUGGUCCAACUUAUUUGGAUGGAGCUG | -0.686 | -0.976 | -0.514 | -1
CAUAAACGAACUUAUGGAUUUGUUUAUG | -0.474 | -1.25 | -0.393 | -0.904
CAUAGAUUAUGACUGUG [SHAPE_invivo_SARS-CoV-2_Motif_206] | -0.165 | -0.826 | -0.373 | -0.396
CAUCAAAACCAAGCAAGAGGUCAUUUAUUGAAGAUCUACUUUUCAACAAAGUGACACUUGCAGAUG [DMSMaPseq_invitro_SARS-CoV-2_Motif_426] | -0.806 | -0.851 | -0.0955 | -0.92
CAUCAACCAUAUGUAGUUGAUG | -0.47 | -1.15 | -0.283 | -0.872
CAUCAUAUGCAGCUUUUGCUACUGCUCAAGAAGCUUAUGAGCAGGCUGUUGCUAAUGGUG | -1.04 | -0.238 | -0.315 | -0.917
CAUCGUUGAUAGUG [SHAPE_invitro_SARS-CoV-2_Motif_152] | 0.718 | 0.588 | 0.263 | 0.76
CAUGAAGUGUGAUCAUUGUGGUGAAACUUCAUG | -0.496 | -0.279 | -0.154 | -0.605
CAUGAGCAGUGCUGACUCAACUCAGGCCUAAACUCAUG | -0.197 | 0.83 | 0.0138 | 0.27
CAUGCAAAUUACAUAUUUUGGAGGAAUACAAAUCCAAUUCAGUUGUCUUCCUAUUCUUUAUUUGACAUG | -0.857 | -0.803 | -0.152 | -1.08
CAUGCUGAUUUUGACACAUGGUUUAGCCAGCGUG [DMSMaPseq_invitro_SARS-CoV-2_Motif_160] | -0.604 | -0.276 | -0.409 | -0.64
CAUGGAUUUGUCUUCUACAAUUUGCCUAUG | -0.852 | -0.745 | -0.186 | -0.967
CAUGUCAUGUCUAAACAUACUGACUUUUCAAGUG [SHAPE_invitro_SARS-CoV-2_Motif_169] | -0.283 | -0.539 | -0.276 | -0.41
CAUGUGAUCUGCACCUCUGAAGACAUG | 0.111 | 0.33 | 0.185 | 0.248
CAUGUGGUAGUGUUGGUUUUAACAUAGAUUAUGACUGUGUCUCUUUUUGUUACAUGCACCAUAUG | 1.54 | -0.00779 | 0.0495 | 1.48

Sequence | pull-down binding Z-score [1] | pull-down binding Z-score [2] | pull-down binding Z-score [3] | pull-down binding Z-score (TO-N3 (biotin conjugate))
CAUGUGUUGGUAGCGAUAAUGUUACUGACUUUAAUG | -0.663 | -1.01 | -0.614 | -0.995
CAUGUUUAUCACCCGCGAAGAAGCUAUAAGACAUGUACGUGCAUGGAUUGGCUUCGAUGUCGAGGGGUGUCAUG [DMSMaPseq_invitro_SARS-CoV-2_Motif_326] | -0.699 | -0.0649 | -0.363 | -0.771
CAUUACUUUAUGAUG [SHAPE_invitro_SARS-CoV-2_Motif_468] | 0.168 | -1.02 | -0.259 | -0.055
CAUUUGUAGUUUCAACUGGAUACCACUUCAGAGAGCUAGGUGUUGUACAUAAUCAGGAUGUAAACUUACAUAGCUCUAGACUUAGUUUUAAGGAAUUACUUGUG | -0.927 | 0.127 | -0.292 | -0.109
CCAAGACAUGUGAUCUGCACCUCUGAAGACAUGCUUAACCCUAAUUAUGAAGAUUUACUCAUUCGUAAGUCUAAUCAUAAUUUCUUGG [DMSMaPseq_invitro_SARS-CoV-2_Multi_33_ComplexLevel_1] | 0.403 | 0.229 | -0.101 | 0.332
CCAAGGAAAUUUUGG | -0.192 | -0.948 | -0.382 | -0.373
CCACAUAGAUCAUCCAAAUCCUAAAGGAUUUUGUGACUUAAAAGG [SHAPE_invivo_SARS-CoV-2_Motif_251] | -0.167 | -0.137 | -0.357 | -0.169
CCACAUUUUCACCGAGGCCACGCGGAGUACGAUCGAGUGUACAGUGAACAAUGCUAGG | -0.147 | 1.34 | 0.563 | 0.772
CCACGCACAUUGCUAACUAAGGGCACACUAGAACCAGAAUAUUUCAAUUCAGUGUGUAGACUUAUGAAAACUAUAGGUCCAGACAUGUUCCUCGGAACUUGUCGG | -0.478 | 0.139 | -0.0669 | -0.189
CCACGCCAGGUAGUGG | 1.16 | -0.539 | 0.0319 | 0.912
CCACGCUCGUUCCGACACCGGAACGGCACUCGACACCGAGUGCAGCGUGG [3-way model-3_NoName] | 1.17 | 1.93 | 1.41 | 1.51
CCACUUGGCUAUGUAACACAUGGCUUAAAUUUGG [DMSMaPseq_invitro_SARS-CoV-2_Motif_85] | 0.386 | -0.575 | -0.0708 | 0.127
CCAGAGAAGAAACUGG | 0.466 | 0.486 | 0.0828 | 0.417
CCAGUACCAGAGGUGAAAAUACUCAAUAAUUUGGGUGUGGACAUUGCUGCUAAUACUGUG | 1.32 | -0.0208 | 0.266 | 1.18
CCAGUAUCUGAAUUACUUACACCACUGG [SHAPE_invivo_SARS-CoV-2_Motif_58] | 0.91 | -0.0924 | 0.119 | 0.688
CCAGUAUCUGAAUUACUUACACCACUGGGCAUUGAUUUAGAUGAGUGGAGUAUGGCUACAUACUACUUAUUUGAUGAGUCUGGUGAGUUUAAAUUGG | -0.742 | -0.946 | -0.468 | -0.752
CCAGUAUGGUGG [IAV_invivo_PB1_2_Motif_36+IAV_invivo_PB1_2_Motif_36] | -0.26 | -0.372 | -0.471 | -0.423
CCAUAAUGAAUCUGG [DMSMaPseq_invitro_SARS-CoV-2_Motif_27] | -0.322 | -0.529 | -0.198 | -0.345
CCAUGGCAGAUUCCAACGGUACUAUUACCGUUGAAGAGCUUAAAAAGCUCCUUGAACAAUGGAACCUAGUAAUAGGUUUCCUAUUCCUUACAUGG [DMSMaPseq_invitro_SARS-CoV-2_Multi_81_ComplexLevel_1] | -0.195 | -0.419 | -0.516 | -0.621
CCAUGGGACAGGAACAGGAUACACCAUGG [IAV_invivo_PB1_2_Motif_4+IAV_invivo_PB1_2_Motif_4] | -0.411 | 0.927 | 0.154 | -0.056
CCAUUCUUCGUAAGGGUGG [DMSMaPseq_invitro_SARS-CoV-2_Motif_28] | 0.0314 | -0.66 | -0.245 | -0.198
CCAUUUCAUCUUUUAAAUGG | -0.598 | -0.946 | -0.38 | -0.985
CCAUUUGCUAUGCAAAUGG | -0.562 | -1.56 | -0.677 | -1.05
CCCAAGUCAUGAAGGAGAGGG [IAV_invivo_PA_3_Motif_13+IAV_invivo_PA_3_Motif_13] | 0.689 | 0.652 | 0.497 | 0.816
CCCAAUCAUGAAGGG [IAV_invivo_PB1_2_Motif_24+IAV_invivo_PB1_2_Motif_24] | -0.131 | -0.373 | -0.407 | -0.488
CCCAAUCGUGGCGUGUCGGCCUGCUUCGGCAGGCACUGGCGCCG [Pepper530] | 0.37 | 1.13 | 0.0777 | 0.516
